Laboratory results as given in publication PMC10500007 (2023).

Tests used:
[1] = target: T1, human integrin αvβ6 (soluble, construct not stated) (human, UniProt P06756 31-1048; P18564 22-709); assay: BLI
T1 chain 1: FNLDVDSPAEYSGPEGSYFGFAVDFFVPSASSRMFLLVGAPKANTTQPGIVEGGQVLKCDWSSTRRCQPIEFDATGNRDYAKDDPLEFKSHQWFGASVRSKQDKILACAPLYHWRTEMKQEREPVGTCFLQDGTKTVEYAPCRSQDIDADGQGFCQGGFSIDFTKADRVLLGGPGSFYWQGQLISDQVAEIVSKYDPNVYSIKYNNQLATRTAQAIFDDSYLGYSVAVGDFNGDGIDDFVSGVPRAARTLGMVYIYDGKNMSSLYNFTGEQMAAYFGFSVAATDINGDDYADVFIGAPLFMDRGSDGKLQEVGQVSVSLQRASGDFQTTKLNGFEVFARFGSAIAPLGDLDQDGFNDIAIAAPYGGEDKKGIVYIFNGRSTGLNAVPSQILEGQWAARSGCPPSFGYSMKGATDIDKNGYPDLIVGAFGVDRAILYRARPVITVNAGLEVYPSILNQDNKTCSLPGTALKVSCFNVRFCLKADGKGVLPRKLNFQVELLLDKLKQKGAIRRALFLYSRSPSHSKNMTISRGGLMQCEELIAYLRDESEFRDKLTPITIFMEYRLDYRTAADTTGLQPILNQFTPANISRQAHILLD
T1 chain 2: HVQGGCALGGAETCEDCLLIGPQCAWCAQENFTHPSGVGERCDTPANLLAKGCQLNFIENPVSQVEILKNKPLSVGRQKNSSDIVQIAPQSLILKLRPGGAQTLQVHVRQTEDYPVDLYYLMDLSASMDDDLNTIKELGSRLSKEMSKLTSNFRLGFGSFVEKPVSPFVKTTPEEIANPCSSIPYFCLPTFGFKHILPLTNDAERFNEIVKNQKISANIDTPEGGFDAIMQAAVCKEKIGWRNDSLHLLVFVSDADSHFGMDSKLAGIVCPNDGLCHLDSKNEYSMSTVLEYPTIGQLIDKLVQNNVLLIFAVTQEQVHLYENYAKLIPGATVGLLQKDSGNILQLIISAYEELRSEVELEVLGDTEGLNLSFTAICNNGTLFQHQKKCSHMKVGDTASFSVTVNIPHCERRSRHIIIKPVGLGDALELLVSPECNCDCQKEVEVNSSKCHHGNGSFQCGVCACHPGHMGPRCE

[2] = target: αvβ1 (Homo sapiens); assay: BLI
[3] = target: α5β1 (Homo sapiens); assay: BLI
[4] = target: α8β1 (Homo sapiens); assay: BLI
[5] = target: T2, αvβ3 (Homo sapiens); assay: BLI
T2 chain 1: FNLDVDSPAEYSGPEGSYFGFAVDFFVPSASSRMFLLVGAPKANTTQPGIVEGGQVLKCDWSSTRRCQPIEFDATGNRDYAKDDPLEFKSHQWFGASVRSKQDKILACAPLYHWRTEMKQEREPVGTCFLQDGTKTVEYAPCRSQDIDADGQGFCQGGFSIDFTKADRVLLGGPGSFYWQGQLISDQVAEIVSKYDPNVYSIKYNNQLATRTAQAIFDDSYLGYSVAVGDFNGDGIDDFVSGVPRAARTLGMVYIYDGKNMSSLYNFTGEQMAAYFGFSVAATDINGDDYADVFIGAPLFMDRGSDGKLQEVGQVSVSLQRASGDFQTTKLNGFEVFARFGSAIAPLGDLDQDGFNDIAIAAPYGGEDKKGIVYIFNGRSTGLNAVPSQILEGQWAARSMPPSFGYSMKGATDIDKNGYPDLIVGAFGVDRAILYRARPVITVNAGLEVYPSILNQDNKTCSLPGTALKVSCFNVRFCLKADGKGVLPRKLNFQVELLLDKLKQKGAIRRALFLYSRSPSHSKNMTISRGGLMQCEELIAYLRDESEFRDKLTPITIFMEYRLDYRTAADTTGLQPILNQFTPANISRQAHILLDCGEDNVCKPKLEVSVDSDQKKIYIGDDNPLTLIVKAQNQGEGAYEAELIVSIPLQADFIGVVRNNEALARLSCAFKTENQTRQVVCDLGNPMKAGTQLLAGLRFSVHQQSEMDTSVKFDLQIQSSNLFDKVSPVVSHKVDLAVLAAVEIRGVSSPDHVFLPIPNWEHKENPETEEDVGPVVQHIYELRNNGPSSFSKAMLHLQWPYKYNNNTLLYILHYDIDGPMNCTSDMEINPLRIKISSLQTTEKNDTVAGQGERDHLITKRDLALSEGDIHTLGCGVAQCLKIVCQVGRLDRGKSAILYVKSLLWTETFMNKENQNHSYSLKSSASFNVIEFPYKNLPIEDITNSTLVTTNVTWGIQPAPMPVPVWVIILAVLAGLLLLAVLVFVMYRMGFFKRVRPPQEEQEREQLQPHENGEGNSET
T2 chain 2: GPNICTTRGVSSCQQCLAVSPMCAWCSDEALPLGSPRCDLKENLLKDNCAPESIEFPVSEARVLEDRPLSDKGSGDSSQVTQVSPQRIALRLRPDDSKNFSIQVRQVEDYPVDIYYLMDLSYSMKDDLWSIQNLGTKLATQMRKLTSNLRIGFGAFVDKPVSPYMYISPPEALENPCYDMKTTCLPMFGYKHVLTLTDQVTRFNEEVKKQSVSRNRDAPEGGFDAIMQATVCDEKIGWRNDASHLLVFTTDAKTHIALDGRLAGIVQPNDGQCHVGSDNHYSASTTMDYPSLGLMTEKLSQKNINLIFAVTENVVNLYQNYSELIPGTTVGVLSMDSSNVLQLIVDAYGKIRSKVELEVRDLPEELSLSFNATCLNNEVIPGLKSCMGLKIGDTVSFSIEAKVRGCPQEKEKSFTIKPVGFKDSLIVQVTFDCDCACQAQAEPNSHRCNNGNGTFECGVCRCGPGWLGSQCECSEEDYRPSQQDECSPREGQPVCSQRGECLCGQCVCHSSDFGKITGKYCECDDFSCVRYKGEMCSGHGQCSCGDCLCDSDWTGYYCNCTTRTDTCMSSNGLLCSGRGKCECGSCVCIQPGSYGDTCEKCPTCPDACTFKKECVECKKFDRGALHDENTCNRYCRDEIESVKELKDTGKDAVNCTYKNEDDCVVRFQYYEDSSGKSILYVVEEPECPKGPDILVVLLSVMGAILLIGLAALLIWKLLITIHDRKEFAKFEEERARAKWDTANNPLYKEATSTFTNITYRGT

[6] = target: T3, αvβ5 (Homo sapiens); assay: BLI
T3 chain 1: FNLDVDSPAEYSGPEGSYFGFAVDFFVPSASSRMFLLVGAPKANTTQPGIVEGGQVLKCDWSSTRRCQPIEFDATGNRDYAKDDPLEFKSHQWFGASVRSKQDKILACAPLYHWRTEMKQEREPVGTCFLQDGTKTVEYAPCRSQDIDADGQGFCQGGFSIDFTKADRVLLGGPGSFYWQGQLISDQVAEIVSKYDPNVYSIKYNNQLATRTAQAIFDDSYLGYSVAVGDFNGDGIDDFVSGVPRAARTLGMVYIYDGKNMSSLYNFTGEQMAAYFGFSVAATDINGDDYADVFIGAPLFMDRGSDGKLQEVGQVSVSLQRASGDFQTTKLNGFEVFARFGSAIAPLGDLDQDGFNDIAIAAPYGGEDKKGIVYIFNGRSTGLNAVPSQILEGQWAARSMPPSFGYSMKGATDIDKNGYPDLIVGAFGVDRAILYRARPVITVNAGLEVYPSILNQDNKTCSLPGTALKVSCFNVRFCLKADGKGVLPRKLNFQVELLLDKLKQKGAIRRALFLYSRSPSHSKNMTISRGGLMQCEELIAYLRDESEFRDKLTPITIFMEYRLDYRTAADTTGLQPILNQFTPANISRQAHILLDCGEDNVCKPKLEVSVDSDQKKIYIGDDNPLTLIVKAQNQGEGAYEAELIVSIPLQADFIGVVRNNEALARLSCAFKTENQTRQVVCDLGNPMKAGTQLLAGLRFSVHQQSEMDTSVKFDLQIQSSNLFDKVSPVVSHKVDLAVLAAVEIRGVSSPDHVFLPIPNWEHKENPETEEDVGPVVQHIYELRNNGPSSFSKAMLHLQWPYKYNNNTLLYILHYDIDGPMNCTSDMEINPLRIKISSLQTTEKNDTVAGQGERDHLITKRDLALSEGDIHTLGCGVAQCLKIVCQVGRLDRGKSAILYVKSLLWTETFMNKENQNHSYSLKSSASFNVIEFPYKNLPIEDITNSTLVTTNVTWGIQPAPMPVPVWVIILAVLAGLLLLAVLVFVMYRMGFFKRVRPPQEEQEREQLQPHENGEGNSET
T3 chain 2: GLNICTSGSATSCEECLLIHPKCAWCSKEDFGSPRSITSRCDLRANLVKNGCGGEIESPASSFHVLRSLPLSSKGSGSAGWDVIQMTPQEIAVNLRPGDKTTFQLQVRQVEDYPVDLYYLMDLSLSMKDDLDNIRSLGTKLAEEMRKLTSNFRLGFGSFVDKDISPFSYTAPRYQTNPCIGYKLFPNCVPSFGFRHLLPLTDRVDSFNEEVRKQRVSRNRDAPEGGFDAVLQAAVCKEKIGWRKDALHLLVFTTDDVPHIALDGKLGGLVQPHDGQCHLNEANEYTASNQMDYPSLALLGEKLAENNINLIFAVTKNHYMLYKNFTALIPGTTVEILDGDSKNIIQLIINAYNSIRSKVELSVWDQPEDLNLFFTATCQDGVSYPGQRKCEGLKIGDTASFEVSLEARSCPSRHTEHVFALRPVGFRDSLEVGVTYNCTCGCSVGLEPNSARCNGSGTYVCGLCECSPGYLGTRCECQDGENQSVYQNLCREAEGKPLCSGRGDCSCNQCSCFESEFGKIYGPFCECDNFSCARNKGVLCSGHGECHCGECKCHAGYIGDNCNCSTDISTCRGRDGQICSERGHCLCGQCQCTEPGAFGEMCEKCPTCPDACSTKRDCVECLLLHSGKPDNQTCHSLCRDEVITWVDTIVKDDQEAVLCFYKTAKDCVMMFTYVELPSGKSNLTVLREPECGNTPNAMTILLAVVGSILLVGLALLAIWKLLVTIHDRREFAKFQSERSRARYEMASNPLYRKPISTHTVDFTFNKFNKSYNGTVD

[7] = target: αIIbβ3 (Homo sapiens); assay: BLI
[8] = target: T4, human integrin αvβ8 (soluble, construct not stated) (human, UniProt P06756 31-1048; P26012 43-684); assay: BLI
T4 chain 1: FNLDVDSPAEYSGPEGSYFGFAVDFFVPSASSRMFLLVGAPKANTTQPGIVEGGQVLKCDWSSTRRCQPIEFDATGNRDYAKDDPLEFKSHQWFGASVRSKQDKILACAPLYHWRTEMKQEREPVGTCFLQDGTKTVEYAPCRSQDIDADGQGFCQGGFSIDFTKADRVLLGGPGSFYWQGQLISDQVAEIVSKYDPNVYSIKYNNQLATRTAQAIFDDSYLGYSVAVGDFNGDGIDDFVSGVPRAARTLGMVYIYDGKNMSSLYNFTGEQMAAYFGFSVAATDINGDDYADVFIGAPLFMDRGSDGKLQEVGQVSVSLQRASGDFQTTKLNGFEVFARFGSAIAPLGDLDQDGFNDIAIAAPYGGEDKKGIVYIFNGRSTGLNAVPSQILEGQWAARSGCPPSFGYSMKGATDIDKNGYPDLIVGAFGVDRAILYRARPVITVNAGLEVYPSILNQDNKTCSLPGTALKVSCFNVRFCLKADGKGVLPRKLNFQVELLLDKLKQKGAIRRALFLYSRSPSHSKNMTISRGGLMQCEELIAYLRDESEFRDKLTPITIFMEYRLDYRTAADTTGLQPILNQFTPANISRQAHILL
T4 chain 2: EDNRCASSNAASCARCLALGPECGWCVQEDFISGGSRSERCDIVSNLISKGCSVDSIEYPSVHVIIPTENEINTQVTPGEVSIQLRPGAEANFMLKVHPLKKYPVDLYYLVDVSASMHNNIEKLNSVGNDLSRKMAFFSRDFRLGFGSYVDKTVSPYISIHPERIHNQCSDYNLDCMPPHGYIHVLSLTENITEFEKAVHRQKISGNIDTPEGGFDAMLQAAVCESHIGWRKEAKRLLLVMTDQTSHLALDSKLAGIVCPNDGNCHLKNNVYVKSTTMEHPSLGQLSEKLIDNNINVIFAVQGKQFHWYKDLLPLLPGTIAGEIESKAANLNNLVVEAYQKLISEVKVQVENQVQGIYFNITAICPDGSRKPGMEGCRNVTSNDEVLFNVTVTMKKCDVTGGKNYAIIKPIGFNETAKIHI

[9] = target: recombinant human integrin αvβ8 headpiece (Expi293F) (human, UniProt P06756); assay: ELISA; competition with hLAP1
[10] = target: recombinant human integrin αvβ6 headpiece (Expi293F) (human, UniProt P06756 31-429; P18564 130-371, I287C); assay: ELISA; competition with hLAP1

Sequence of α8β1 (Homo sapiens) (chain, as listed by the source, chain 1 of 2): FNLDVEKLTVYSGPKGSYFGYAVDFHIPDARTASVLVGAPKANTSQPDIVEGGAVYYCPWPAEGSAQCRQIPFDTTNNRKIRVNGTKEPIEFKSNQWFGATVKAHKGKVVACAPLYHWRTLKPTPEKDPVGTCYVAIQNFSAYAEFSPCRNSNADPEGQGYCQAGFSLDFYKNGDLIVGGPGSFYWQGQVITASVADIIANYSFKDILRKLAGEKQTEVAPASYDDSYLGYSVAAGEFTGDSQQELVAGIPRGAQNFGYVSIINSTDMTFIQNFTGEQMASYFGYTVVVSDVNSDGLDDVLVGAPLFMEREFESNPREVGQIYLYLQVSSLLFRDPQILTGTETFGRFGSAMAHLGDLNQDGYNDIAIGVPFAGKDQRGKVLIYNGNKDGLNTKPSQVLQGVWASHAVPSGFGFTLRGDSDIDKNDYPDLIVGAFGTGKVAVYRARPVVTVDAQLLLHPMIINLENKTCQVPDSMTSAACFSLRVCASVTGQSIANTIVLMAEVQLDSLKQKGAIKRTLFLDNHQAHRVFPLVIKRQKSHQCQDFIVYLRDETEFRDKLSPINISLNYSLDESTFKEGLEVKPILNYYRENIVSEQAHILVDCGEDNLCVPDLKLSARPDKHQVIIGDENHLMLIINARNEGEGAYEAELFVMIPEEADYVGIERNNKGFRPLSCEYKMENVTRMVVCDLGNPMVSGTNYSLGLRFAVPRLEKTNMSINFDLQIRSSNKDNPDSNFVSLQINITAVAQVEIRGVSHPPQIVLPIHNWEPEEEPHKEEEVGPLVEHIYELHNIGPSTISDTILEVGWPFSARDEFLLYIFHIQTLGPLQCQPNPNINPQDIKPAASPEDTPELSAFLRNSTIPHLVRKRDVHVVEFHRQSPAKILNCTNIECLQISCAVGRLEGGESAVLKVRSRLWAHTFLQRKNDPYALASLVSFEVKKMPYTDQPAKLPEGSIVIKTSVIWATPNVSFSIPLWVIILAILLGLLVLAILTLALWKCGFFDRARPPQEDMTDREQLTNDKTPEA
Sequence of α8β1 (Homo sapiens) (chain, as listed by the source, chain 2 of 2): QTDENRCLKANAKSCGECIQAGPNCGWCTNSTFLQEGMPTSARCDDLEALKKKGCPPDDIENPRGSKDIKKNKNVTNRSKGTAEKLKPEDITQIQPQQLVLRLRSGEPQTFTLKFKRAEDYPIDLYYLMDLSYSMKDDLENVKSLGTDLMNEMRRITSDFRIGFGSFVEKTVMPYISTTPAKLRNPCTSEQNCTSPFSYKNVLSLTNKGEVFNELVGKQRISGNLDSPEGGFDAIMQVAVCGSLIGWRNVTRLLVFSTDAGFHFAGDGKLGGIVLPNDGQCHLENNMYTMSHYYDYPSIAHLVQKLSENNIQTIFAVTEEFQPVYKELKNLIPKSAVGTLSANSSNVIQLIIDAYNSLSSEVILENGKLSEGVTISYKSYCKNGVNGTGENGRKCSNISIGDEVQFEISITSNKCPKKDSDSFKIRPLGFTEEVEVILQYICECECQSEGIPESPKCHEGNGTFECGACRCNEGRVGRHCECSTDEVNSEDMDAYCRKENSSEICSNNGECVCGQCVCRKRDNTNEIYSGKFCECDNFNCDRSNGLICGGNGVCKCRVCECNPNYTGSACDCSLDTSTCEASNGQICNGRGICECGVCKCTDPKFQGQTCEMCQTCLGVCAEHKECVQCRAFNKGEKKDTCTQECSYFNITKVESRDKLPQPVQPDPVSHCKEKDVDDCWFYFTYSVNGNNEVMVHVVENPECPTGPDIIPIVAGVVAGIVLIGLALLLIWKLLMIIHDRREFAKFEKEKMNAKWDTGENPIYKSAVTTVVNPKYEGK
Sequence of αvβ1 (Homo sapiens) (chain, as listed by the source, chain 2 of 2, one chain of several): as the sequence (chain, as listed by the source, chain 2 of 2) above
Sequence of α5β1 (Homo sapiens) (chain, as listed by the source, chain 1 of 2): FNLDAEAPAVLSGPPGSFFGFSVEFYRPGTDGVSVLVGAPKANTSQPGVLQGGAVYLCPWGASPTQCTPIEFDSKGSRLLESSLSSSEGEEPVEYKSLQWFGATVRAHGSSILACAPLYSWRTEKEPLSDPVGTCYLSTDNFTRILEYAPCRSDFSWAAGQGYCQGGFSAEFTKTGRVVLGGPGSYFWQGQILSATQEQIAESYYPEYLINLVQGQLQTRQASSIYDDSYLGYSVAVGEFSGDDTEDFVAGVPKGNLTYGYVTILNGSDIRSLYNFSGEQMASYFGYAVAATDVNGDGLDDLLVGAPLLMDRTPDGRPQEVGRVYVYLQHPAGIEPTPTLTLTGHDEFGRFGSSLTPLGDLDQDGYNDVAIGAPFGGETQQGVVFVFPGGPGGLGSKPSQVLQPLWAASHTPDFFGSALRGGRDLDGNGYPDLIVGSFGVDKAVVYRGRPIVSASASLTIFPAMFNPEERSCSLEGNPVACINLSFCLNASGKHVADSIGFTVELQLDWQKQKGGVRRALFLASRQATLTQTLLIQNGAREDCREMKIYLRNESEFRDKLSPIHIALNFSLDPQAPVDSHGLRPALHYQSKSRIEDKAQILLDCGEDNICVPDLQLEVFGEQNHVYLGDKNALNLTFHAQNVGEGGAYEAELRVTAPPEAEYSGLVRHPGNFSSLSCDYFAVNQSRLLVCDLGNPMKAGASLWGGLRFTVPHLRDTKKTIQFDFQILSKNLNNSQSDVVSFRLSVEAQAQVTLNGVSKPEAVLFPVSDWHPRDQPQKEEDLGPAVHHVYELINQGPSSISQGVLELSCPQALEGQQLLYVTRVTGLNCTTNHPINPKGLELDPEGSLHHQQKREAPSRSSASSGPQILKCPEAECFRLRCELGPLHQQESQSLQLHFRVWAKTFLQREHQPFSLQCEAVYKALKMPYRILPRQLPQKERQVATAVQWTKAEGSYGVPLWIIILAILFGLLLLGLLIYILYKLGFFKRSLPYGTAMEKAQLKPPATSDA
Sequence of α5β1 (Homo sapiens) (chain, as listed by the source, chain 2 of 2): as the sequence (chain, as listed by the source, chain 2 of 2) above
Sequence of recombinant human integrin αvβ8 headpiece (Expi293F) (P06756 whole entry, looked up): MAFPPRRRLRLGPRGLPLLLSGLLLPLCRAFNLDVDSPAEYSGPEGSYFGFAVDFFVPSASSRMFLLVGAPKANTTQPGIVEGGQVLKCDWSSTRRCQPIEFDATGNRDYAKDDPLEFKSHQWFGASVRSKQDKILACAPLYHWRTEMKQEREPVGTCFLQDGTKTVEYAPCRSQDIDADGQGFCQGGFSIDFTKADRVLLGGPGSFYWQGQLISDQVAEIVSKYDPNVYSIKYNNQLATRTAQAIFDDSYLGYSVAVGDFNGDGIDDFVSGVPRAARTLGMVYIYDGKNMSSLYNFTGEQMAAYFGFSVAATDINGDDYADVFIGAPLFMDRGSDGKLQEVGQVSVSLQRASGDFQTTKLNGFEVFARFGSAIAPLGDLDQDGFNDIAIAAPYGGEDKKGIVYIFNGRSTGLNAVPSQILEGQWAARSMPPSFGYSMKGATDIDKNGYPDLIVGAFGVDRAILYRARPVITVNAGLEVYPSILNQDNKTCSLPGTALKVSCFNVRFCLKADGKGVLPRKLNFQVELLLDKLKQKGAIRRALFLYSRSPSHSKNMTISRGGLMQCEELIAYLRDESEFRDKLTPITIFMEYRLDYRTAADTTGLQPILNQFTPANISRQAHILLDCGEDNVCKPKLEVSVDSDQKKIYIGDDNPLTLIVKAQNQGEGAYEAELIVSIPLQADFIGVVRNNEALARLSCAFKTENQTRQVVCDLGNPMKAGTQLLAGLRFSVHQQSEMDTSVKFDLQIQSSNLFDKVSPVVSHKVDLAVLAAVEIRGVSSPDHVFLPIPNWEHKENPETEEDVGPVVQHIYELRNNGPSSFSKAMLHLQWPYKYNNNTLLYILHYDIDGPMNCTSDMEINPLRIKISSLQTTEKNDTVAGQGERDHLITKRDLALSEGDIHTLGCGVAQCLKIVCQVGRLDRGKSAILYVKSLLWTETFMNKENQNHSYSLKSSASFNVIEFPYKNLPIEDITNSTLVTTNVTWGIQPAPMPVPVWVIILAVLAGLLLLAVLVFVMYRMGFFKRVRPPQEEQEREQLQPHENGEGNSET

B1: MAVI (protein)
chain: TKCVVRFNFRGDMAVIALKAVKDHLKKEGPHWNITTHNDDEVYLVVRGIHESDAKRIAKWVESTIPGISVETQCD
modifications: N/C-terminal disulfide staple (Cys3-Cys74); B8_BP_dslf with MAVY motif changed to MAVI
Kd [1]: 1.2 nM

B2: B6_BP_dslf (designed binder)
chain: TKCVVRFVFRGDLAELMLRAVKDHLKKEGPHWNITSTNNGKELVVRGIHESDAKRIAKWVEKRFPRVHTETQCD
modifications: full-length mature chains taken as on K562 cells; soluble ectodomain possible for BLI; divalent cations, glycosylated
Kd [2]: > 200 nM | Kd [3]: > 200 nM | Kd [4]: > 200 nM | Kd [5]: > 200 nM | Kd [6]: > 200 nM | Kd [7]: > 200 nM

B3: B8_BP-LATY (designed binder)
chain: TKCVVRFNFRGDLATYALKAVKDHLKKEGPHWNITTHNDDEVYLVVRGIHESDAKRIAKWVESTIPGISVETQCD
modifications: full-length mature chains taken as on K562 cells; soluble ectodomain possible for BLI; divalent cations, glycosylated
Kd [2]: > 1000 nM | Kd [3]: > 1000 nM | Kd [4]: > 1000 nM | Kd [5]: > 1000 nM | Kd [6]: > 1000 nM | Kd [7]: > 1000 nM

B4: B6_BP_dslf (designed binder)
chain: TKCVVRFVFRGDLAELMLRAVKDHLKKEGPHWNITSTNNGKELVVRGIHESDAKRIAKWVEKRFPRVHTETQCD
Kd [1]: 0.11 nM | Kd [8]: 580 nM | IC50 [9]: ~80 nM

B5: B8_BP-LATY (designed binder)
chain: TKCVVRFNFRGDLATYALKAVKDHLKKEGPHWNITTHNDDEVYLVVRGIHESDAKRIAKWVESTIPGISVETQCD
Kd [1]: > 500 nM

B6: B8_BP_dslf (designed binder)
chain: TKCVVRFNFRGDMAVYALKAVKDHLKKEGPHWNITTHNDDEVYLVVRGIHESDAKRIAKWVESTIPGISVETQCD
Kd [1]: > 1000 nM | IC50 [10]: > 500 nM

B7: MATI (protein)
chain: TKCVVRFNFRGDMATIALKAVKDHLKKEGPHWNITTHNDDEVYLVVRGIHESDAKRIAKWVESTIPGISVETQCD
modifications: N/C-terminal disulfide staple (Cys3-Cys74); B8_BP_dslf with MAVY motif changed to MATI
Kd [1]: 1.2 nM
